B1: Fractalkine (Homo sapiens), P78423 (parent)
chain: MAPISLSWLLRLATFCHLTVLLAGQHHGVTKCNITCSKMTSKIPVALLIHYQQNQASCGKRAIILETRQHRLFCADPKEQWVKDAMQHLDRQAAALTRNGGTFEKQIGEVKPRTTPAAGGMDESVVLEPEATGESSSLEPTPSSQEAQRALGTSPELPTGVTGSSGTRLPPTPKAQDGGPVGTELFRVPPVSTAATWQSSAPHQPGPSLWAEAKTSEAPSTQDPSTQASTASSPAPEENAPSEGQRVWGQGQSPRPENSLEREEMGPVPAHTDAFQDWGPGSMAHVSVVPVSSEGTPSREPVASGSWTPKAEEPIHATMDPQRLGVLITPVPDAQAATRRQAVGLLAFLGLLFCLGVAMFTYQSLQGCPRKMAGEMAEGLRYIPRSCGSNSYVLVPV

Variants of: B1
Details: with cx3c1_human CX3CR1, P49238
Sequence of cx3c1_human CX3CR1, P49238 (P49238 whole entry): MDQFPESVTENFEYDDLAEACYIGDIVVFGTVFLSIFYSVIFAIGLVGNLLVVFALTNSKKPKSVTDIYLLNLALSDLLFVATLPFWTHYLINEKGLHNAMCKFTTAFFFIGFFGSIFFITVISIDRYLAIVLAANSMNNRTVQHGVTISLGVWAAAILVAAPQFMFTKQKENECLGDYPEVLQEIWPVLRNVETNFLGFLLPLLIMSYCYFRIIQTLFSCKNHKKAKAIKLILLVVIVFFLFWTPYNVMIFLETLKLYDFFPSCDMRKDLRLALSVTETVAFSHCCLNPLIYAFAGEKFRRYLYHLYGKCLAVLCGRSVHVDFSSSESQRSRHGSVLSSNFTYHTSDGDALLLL

Variant	effect of a mutation on the interaction
MAPISLSWLLRLATFCHLTVLLAGQHHGVTKCNITCSKMTSKIPVALLIHYQQNQASCGAAAIILETRQHRLFCADPKEQWVKDAMQHLDRQAAALTRNGGTFEKQIGEVKPRTTPAAGGMDESVVLEPEATGESSSLEPTPSSQEAQRALGTSPELPTGVTGSSGTRLPPTPKAQDGGPVGTELFRVPPVSTAATWQSSAPHQPGPSLWAEAKTSEAPSTQDPSTQASTASSPAPEENAPSEGQRVWGQGQSPRPENSLEREEMGPVPAHTDAFQDWGPGSMAHVSVVPVSSEGTPSREPVASGSWTPKAEEPIHATMDPQRLGVLITPVPDAQAATRRQAVGLLAFLGLLFCLGVAMFTYQSLQGCPRKMAGEMAEGLRYIPRSCGSNSYVLVPV [K60A;R61A]	with no effect
MAPISLSWLLRLATFCHLTVLLAGQHHGVTKCNITCSKMTSKIPVALLIHYQQNQASCGKRAIILETRQHALFCADPKEQWVKDAMQHLDRQAAALTRNGGTFEKQIGEVKPRTTPAAGGMDESVVLEPEATGESSSLEPTPSSQEAQRALGTSPELPTGVTGSSGTRLPPTPKAQDGGPVGTELFRVPPVSTAATWQSSAPHQPGPSLWAEAKTSEAPSTQDPSTQASTASSPAPEENAPSEGQRVWGQGQSPRPENSLEREEMGPVPAHTDAFQDWGPGSMAHVSVVPVSSEGTPSREPVASGSWTPKAEEPIHATMDPQRLGVLITPVPDAQAATRRQAVGLLAFLGLLFCLGVAMFTYQSLQGCPRKMAGEMAEGLRYIPRSCGSNSYVLVPV [R71A]	disrupting interaction strength

From IntAct's records for PubMed 23125415
